In this experiment the target is SARS-CoV-2 (2019-nCoV) Spike RBD-His Recombinant Protein, Biotinylated (SARS-CoV-2, UniProt P0DTC2, biotin (biotinylated; site not stated)). As to the kind of experiment: SPR. In general terms: Surface plasmon resonance follows binding to a sensor surface in real time, without labels.

B1: Human beta defensin 2 (hBD-2), recombinant (peptide)
chain: GIGDPVTCLKSGAICHPVFCPRRYKQIGTCGLPGTKCCKKP
Consider B1, for which the Kd (as a rule, the free concentration of one partner at which half of the binding sites on the other are occupied at equilibrium, for simple one-to-one binding) was determined as 1800 ± 1100 nM.

Source of the values: paper PMC8808565 (iScience, 2009).
